We go through eleven molecules from patent US7135326B2, “UDP-glucosyltransferases” (E. I. du Pont de Nemours and Company, priority 2002, dated 2006).

For data set [1], the system named is Grape GT. The experiment in a line: Substrate specificity of the purified recombinant Grape GT, HPLC analysis of glucose ester formation. It counts as biochemical, Vitis sp. Conditions: relative to pHBA = 100, 10 mM test substrate, 0.0467 μM purified Grape GT, 15 min, 25° C. How it is done: To rule out the possibility that the Grape GT can also attach glucose to the hydroxyl group of pHBA, the products of the in vitro enzyme reaction were directly analyzed by reverse phase HPLC. […] Following a 1-min incubation period at 25° C., the reactions were terminated by the addition of an equal volume of 0.2 N HCl. […] The column was developed at 1 mL/min with a linear gradient of 10–50% Buffer B that was generated over a 20-min period, and absorbance was monitored at 254 nm. […] To test this hypothesis, Applicants' decided to examine the substrate specificity of the Grape GT in greater detail. […] Following a 15-min incubation period at 25° C., the reactions were quenched with an equal volume of 0.3 M HCl and the entire reaction mixture was analyzed by HPLC as described above in Example 6. The products of the various reactions were identified using authentic chemical standards. The retention times and extinction coefficients of these compounds were determined using the same column conditions. […] Regardless of substrate, the purified recombinant Grape GT only catalyzed the formation of glucose esters, which in all cases co-migrated precisely with the authentic compounds. […] Since the glucose ester of the latter compound is the precursor for the synthesis of simple and complex tannins that are extremely abundant in grapes, it is possible that gallic acid is a physiological substrate of the Grape GT. The data shown in Table 3 make it clear that although the Grape GT glucosylated mHBA (3-hydroxybenzoic […]) at a reasonable rate, product formation with oHBA (2-hydroxybenzoic acid) was not observed.

Data set [2] concerns the target CPL (Escherichia coli, UniProt P26602). As to the kind of experiment: Product inhibition of CPL by pHBA. It counts as biochemical, E. coli. Conditions: read-out: inhibitory constant (Ki). How it is done:
Although double transformant line 39 and the CPL control plant had essentially the same amount of CPL enzyme activity as measured in leaf extracts (Table 8), this doesn't necessarily reflect the situation in vivo. CPL enzyme assays are conducted under optimal conditions, and measure initial velocities in the presence of excess substrate and absence of products. Thus, the initial rate of product formation in the in vitro assay is strictly proportional to the amount of enzyme that is added to the cuvette. Consequently, if two plants had identical levels of CPL gene expression, leaf extracts prepared from these plants would theoretically yield the same initial velocity in the in vitro assay. […] Applicants confirmed these observations.

Data set [3] relates to Arabidopsis thaliana glucosyltransferase UGT84A1 (84A1, GT 3, SEQ ID NO:8). Conditions: 20° C., pH 6; calculated from Vmax of Lim et al. 2001; cited from earlier work.
The nature of data set [4]: Continuous spectrophotometric UDP-glucosyltransferase assay, formation of glucose ester of sinapic acid at 368 nm, E. coli cell-free extracts. The note with it: crude extract, 10 mM UDP-glucose, pH 7.3, 25° C.; for initial rate of product formation, 1 mM SA: 1 mM sinapic acid; for initial rate of product formation, 5 mM SA: 5 mM sinapic acid; for initial rate of product formation, 10 mM SA: 10 mM sinapic acid. It counts as biochemical. The procedure:
(§1) For protein production, the resulting recombinant strains were grown at 22° C. in 50 mL of LB media that contained kanamycin (50 μg/mL). At an A600 nm of ˜0.6, isopropyl-1-thio-β-D-galactopyranoside was added to a final concentration of 0.2 mM. Following a 22-h induction period at the same temperature, the cells were harvested by centrifugation and stored at −80° C. for subsequent manipulation as described below.
(§2) The frozen cell pellets were resuspended in 1.0 mL of a solution containing 100 mM Tris-HCl (pH 7.7), 5 mM MgSO4, 1 mM dithiothreitol, 0.03 mg/mL DNAse I, 0.5 mM phenylmethanesulfonyl fluoride, and passed once through a French pressure cell at 20,000 psi. Debris was removed by centrifugation (43,000×g, 60 min), and the resulting cell-free extracts, containing ˜15 mg of protein per mL, were supplemented with 5% glycerol and stored at −80° C. for subsequent measurements of enzyme activities. Protein concentrations were determined by the Bradford Method using bovine serum albumin as a standard.
(§3) The second assay is based on the increase in absorbance at 368 nm that accompanies the formation of the glucose ester of sinapic acid. The experimental conditions were the same as those described above, but the test substrate was sinapic acid and product formation was calculated using an extinction coefficient of 5,570 M^−1 that was obtained with the authentic chemically synthesized compound under identical conditions.

The nature of data set [5]: Ratio of enzyme activity with pHBA versus sinapic acid (spectrophotometric assays). It counts as biochemical. The note with it: for Ratio of Activity pHBA/SA: Table 4, cell-free extracts, 10 mM pHBA or sinapic acid, 25° C.; for pHBA/SA ratio of enzyme activity: crude extract. How it is done: as §3
Data set [6] can be described thus: Continuous spectrophotometric UDP-glucosyltransferase assay, formation of pHBA glucose ester at 304 nm, E. coli cell-free extracts. It counts as biochemical. Conditions: crude extract, 10 mM UDP-glucose, pH 7.3, 25° C. How it is done: as §1, §2
Data set [7] is described as follows: Freeze/thaw stability of the purified recombinant Grape GT. It counts as physicochemical. Conditions: diluted in buffer with 6% glycerol and 5 mM dithiothreitol, kept on ice, frozen to −80° C. The procedure: For all the enzyme assays described below, frozen aliquots of the purified Grape GT were rapidly thawed and diluted to the desired concentration with ice-cold buffer containing 50 mM Tris-HCl (pH 7.6), 1 mM EDTA, 10 mM Na2SO3, 300 mM NaCl, 6% glycerol and 5 mM dithiothreitol.

Data set [8] can be described thus: Reverse phase HPLC analysis of the products of the in vitro enzyme reaction with pHBA. Format: biochemical. The procedure:
To rule out the possibility that the Grape GT can also attach glucose to the hydroxyl group of pHBA, the products of the in vitro enzyme reaction were directly analyzed by reverse phase HPLC. […] Following a 1-min incubation period at 25° C., the reactions were terminated by the addition of an equal volume of 0.2 N HCl. The samples were briefly centrifuged, and 20-μL aliquots of the resulting supernatants were injected onto a Vydac 218TP54 Protein and Peptide C18 column, (Grace Vydac, Hesperia, Calif.) pre-equilibrated with 90% Buffer A (0.1% formic acid in water) and 10% Buffer B (methanol). The column was developed at 1 mL/min with a linear gradient of 10–50% Buffer B that was generated over a 20-min period, and absorbance was monitored at 254 nm.
In light of these observations, it was extremely important to analyze the reaction products of the Grape GT over a broader range of pH that encompasses physiological conditions. […] In addition, the reaction mixtures also contained 100 mM potassium phosphate buffer (pH 6.0, 7.0 or 8.0), 5 mM MgCl2, 5 mM UDP-glucose, 2 mM dithiothreitol, and 0.47 μM of the purified recombinant Grape GT. After a 15-min incubation period, the reactions were terminated by the addition of an equal volume of 0.3 M HCl and analyzed by reverse phase HPLC as described above. […]

CPL, sequence (P26602 whole entry): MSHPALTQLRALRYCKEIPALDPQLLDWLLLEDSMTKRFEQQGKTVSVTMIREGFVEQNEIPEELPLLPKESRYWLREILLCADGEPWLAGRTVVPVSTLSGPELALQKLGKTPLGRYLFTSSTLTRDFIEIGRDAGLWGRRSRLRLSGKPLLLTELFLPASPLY

Turning to `O=C(O)c1cc(O)c(O)c(O)c1` [Gallic acid, 3,4,5-trihydoxybenzoic acid], the “Relative Rate of product formation” value in data set [1] stood at 64.
Same read-out and setting: the figure for `O=C(O)c1ccccc1O` [OHBA, o-Hydroxybenzoic acid] is 0.
In general, Ki refers to the dissociation constant of the complex between target and ligand, obtained from inhibition or displacement. With `O=C(O)c1ccc(O)cc1` [PHBA, p-Hydroxybenzoic acid], the Ki in data set [2] was approximately 2000 nM. For the same molecule, the “Relative Rate of product formation” value in data set [1] is 100.
As to `COc1cc(/C=C/C(=O)O)cc(OC)c1O` [Sinapic acid], in data set [1], the “Relative Rate of product formation” value stood at 10.
Same read-out and setting: the figure for `O=C(O)/C=C/c1ccc(O)c(O)c1` [Caffeic acid, caffeic acid] is 25.
`O=C(O)C=Cc1ccc(O)cc1` [PHCA, 4-hydroxycinnamic acid]: the “Relative Rate of product formation” value in data set [1] is reported as 56.
Take `O=C(O)c1cccc(O)c1` [MHBA, m-Hydroxybenzoic acid]: in data set [1], the “Relative Rate of product formation” value worked out at 47.
On the same count and under the same terms, in the case of `COc1cc(/C=C/C(=O)O)ccc1O` [Ferrulic acid, ferrulic acid] it was 16.
As for `O=C(O)/C=C/c1ccc(O)cc1` [p-hydroxycinnamic acid], the “turnover number with p-hydroxycinnamic acid” value in data set [3] was approximately 0.70 s⁻¹.

B1: GT 5: Arabidopsis UDP-glucosyltransferase, GenBank AL161541.2, SEQ ID NO:16 (protein, listed as Arabidopsis thaliana)
chain: MKMESSLPHVMLVSFPGQGHISPLLRLGKIIASKGLIVTFVTTEEPLGKKMRQANNIQDGVLKPVGLGFLRFEFFEDGFVYKEDFDLLQKSLEVSGKREIKNLVKKYEKQPVRCLINNAFVPWVCDIAEELQIPSAVLWVQSCACLAAYYYYHHQLVKFPTETEPEITVDVPFKPLTLKHDEIPSFLHPSSPLSSIGGTILEQIKRLHKPFSVLIETFQELEKDTIDHMSQLCPQVNFNPIGPLFTMAKTIRSDIKGDISKPDSDCIEWLDSREPSSVVYISFGTLAFLKQNQIDEIAHGILNSGLSCLWVLRPPLEGLAIEPHVLPLELEEKGKIVEWCQQEKVLAHPAVACFLSHCGWNSTMEALTSGVPVICFPQWGDQVTNAVYMIDVFKTGLRLSRGASDERIVPREEVAERLLEATVGEKAVELRENARRWKEEAESAVAYGGTSERNFQEFVDKLVDVKTMTNINNVV
With B1, in data set [4], the “initial rate of product formation, 1 mM SA” value amounted to 5.18 μM per min; the “initial rate of product formation, 5 mM SA” value amounted to 9.2 μM per min; the “initial rate of product formation, 10 mM SA” value worked out at 5.9 μM per min. The “Ratio of Activity pHBA/SA” value in data set [5] was 0.141. In data set [5] (1 mM substrate), the “pHBA/SA ratio of enzyme activity” value turned out to be 0.044. For the same molecule, the “pHBA/SA ratio of enzyme activity” value in data set [5] (5 mM substrate) was found to be 0.049. Besides, the “pHBA/SA ratio of enzyme activity” value in data set [5] (10 mM substrate) turned out to be 0.141. In data set [6], the “initial rate of product formation, 1 mM pHBA” value is listed as 0.23 μM per min; the “initial rate of product formation, 5 mM pHBA” value is recorded as 0.45 μM per min; the “initial rate of product formation, 10 mM pHBA” value stood at 0.83 μM per min.

B2: Grape GT: Vitis sp. UDP-glucosyltransferase, SEQ ID NO:18, recombinant from E. coli (protein)
chain: MGSESKLVHVFLVSFPGQGHVNPLLRLGKRLASKGLLVTFSTPESIGKQMRKASNITDQPTPVGEGLIRFEFFEDEWDENEPKRQDLDLYLPQLELVGKKVLPQMIKKHAEQDRPVSCLINNPFIPWVSDVAADLGIPSAMLWVQSCACFSTYYHYYHGLVPFPSEAEPEIDVQLPCMPLLKYDEVASFLYPTTPYPFLRRAILGQYRNLDKPFCILMDTFQELEPEVIEYMSKICPIKPVGPLYKNPKVPNAAVRGDFMKADDCIEWLDSKPPSSIVYVSFGSVVYLKQDQVDEIAYGLLNSGLQFLWVMKPPHKDAGLELLVLPEGFLEKAGDKGKVVQWSPQEQVLAHPSVACFVTHCGWNSSMEALSSGMPVVAFPQWGDQVTDAKYLVDEFKIGVRMCRGEAENKLITRDEVEKCLIEATTGPKAAELKQNAMKWKKAAEQAVAEGGSSERNLQGFVDEVRRRSIEIIYKTKI
modifications: Vitis ssp.
Consider B2, for which, in data set [4], the “initial rate of product formation, 1 mM SA” value came out at 22.8 μM per min; the “initial rate of product formation, 5 mM SA” value is recorded as 16.6 μM per min; the “initial rate of product formation, 10 mM SA” value amounted to 4.8 μM per min. Moreover, the stability to freeze/thaw result in data set [7] was “stable to multiple cycles of freeze/thaw without significant loss of enzyme activity”. Moreover, the “glucose conjugates detected by HPLC” value in data set [8] (pH 6.0, 7.0 or 8.0, 0.15 mM or 5 mM pHBA, 0.47 μM purified Grape GT, 15 min) is “the only glucose conjugate that was detected in the in vitro assay was the pHBA glucose ester”. For the same molecule, the “glucosylated products detected by HPLC” value in data set [8] (purified enzyme, pH 7.3, 0.3 mM pHBA, 5 mM UDP-glucose, 25° C. (Example 6)) is given as “the only glucosylated product that was detected in the fractionated enzyme reaction mixture was the pHBA glucose ester”. In addition, the “substrate preference for pHBA over sinapic acid” value in data set [5] (10 mM substrate concentration) came to 37.7 fold. Moreover, the “rate of pHBA glucosylation relative to sinapic acid” value in data set [5] (10 mM substrate, cell-free extract) is listed as approximately 40 times. For the same molecule, the “Ratio of Activity pHBA/SA” value in data set [5] is given as 37.7. Also, the “pHBA/SA ratio of enzyme activity” value in data set [5] (1 mM substrate) amounted to 4.23. The “pHBA/SA ratio of enzyme activity” value in data set [5] (5 mM substrate) is recorded as 10.7. Besides, the “pHBA/SA ratio of enzyme activity” value in data set [5] (10 mM substrate) is 37.7. Further, in data set [6], the “initial rate of product formation, 1 mM pHBA” value amounted to 96.4 μM per min; the “initial rate of product formation, 5 mM pHBA” value turned out to be 177 μM per min; the “initial rate of product formation, 10 mM pHBA” value was 181 μM per min.
